The test has as its target T1, human Tim-3 (T cell Immunoglobulin- and Mucin domain-containing molecule 3) (human, UniProt Q8TDQ0 22-301).
T1 sequence (looked up): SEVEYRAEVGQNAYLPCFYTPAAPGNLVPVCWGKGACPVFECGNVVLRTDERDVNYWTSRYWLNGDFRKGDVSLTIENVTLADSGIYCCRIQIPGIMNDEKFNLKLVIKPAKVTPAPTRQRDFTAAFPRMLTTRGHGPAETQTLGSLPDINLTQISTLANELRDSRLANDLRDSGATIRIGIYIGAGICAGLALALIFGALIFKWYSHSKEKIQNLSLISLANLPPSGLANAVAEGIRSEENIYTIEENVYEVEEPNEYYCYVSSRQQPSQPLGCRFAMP
Nature of the test: cell-based or functional assay.

B1: TIM3 TCB molecule: anti-Tim-3 / anti-CD3 T cell bispecific (TCB) molecule, "2+1 IgG CrossFab, inverted" with charge modifications (VH/VL exchange in CD3 … (bispecific antibody)
heavy 1: QVTLKESGPGILQPSQTLRLTCSFSGFSLSTSGMSVGWIRQPSGKGLEWLAHIWLNDDVFFNPALKSRLTISKDTSNNQVFLQIASVVTADTATYYCVRANGYLYALDYWGQGTSVTVSSASTKGPSVFPLAPSSKSTSGGTAALGCLVEDYFPEPVTVSWNSGALTSGVHTFPAVLQSSGLYSLSSVVTVPSSSLGTQTYICNVNHKPSNTKVDEKVEPKSCDKTHTCPPCPAPEAAGGPSVFLFPPKPKDTLMISRTPEVTCVVVDVSHEDPEVKFNWYVDGVEVHNAKTKPREEQYNSTYRVVSVLTVLHQDWLNGKEYKCKVSNKALGAPIEKTISKAKGQPREPQVCTLPPSRDELTKNQVSLSCAVKGFYPSDIAVEWESNGQPENNYKTTPPVLDSDGSFFLVSKLTVDKSRWQQGNVFSCSVMHEALHNHYTQKSLSLSP
heavy 2: not shown
light 1: EVQLLESGGGLVQPGGSLRLSCAASGFTFSTYAMNWVRQAPGKGLEWVSRIRSKYNNYATYYADSVKGRFTISRDDSKNTLYLQMNSLRAEDTAVYYCVRHGNFGNSYVSWFAYWGQGTLVTVSSASVAAPSVFIFPPSDEQLKSGTASVVCLLNNFYPREAKVQWKVDNALQSGNSQESVTEQDSKDSTYSLSSTLTLSKADYEKHKVYACEVTHQGLSSPVTKSFNRGEC
light 2: QIVLTQSPAIMSASPGQKVTITCSASSSVNYTQWYQQKLGSSPKLWIYDAFKLAPGVPARFSGSGTGTSYSLTISSMEAEDAASYFCHQWSSYPWTFGGGTKLEIKRTVAAPSVFIFPPSDRKLKSGTASVVCLLNNFYPREAKVQWKVDNALQSGNSQESVTEQDSKDSTYSLSSTLTLSKADYEKHKVYACEVTHQGLSSPVTKSFNRGEC
With B1, the “Cytotoxic activity TCB (LDH), IC50 pM, CMK cells (AML)” value is 300 pM; the “Cytotoxic activity TCB (LDH), IC50 pM, EOL-1* cells (AML; 24h pre-treated with 10 ng/ml PMA)” value turned out to be 300 pM; the “Cytotoxic activity TCB (LDH), IC50 pM, KG-1 cells (AML)” value is 1000 pM; the “Cytotoxic activity TCB (LDH), IC50 pM, Karpas-299 cells (NHTCL)” value amounted to 500 pM. The “Cytotoxic activity TCB (LDH), IC50 pM, Kasumi-1 cells (AML)” value stood at 3000 pM; the “Cytotoxic activity TCB (LDH), IC50 pM, Pfeiffer cells (NHBCL)” value was 10 pM; the “Cytotoxic activity TCB (LDH), IC50 pM, RPMI-8226 cells (MM)” value was found to be 100 pM; the “Cytotoxic activity TCB (LDH), IC50 pM, SR cells (LCIBL)” value was found to be 100 pM. In addition, the “EC50 of tumor cell lysis, 24 h LDH release, CHO K1 cells stably expressing human TIM-3, thawed expanded T cells, E:T 1:1” value was 3 pM and the “EC50 of tumor cell lysis, 24 h LDH release, Pfeiffer cells, thawed expanded T cells, E:T 1:1” value is 60 pM.

Values taken from patent WO2017055393A1 (dated 2017).
